“Also recorded” adds a separate entry of the source.
How the values were obtained:
[1] = Pharmacokinetic study, single IV dose in rats, plasma concentrations, noncompartmental analysis; settings: for AUCINF / CL / Cmax / MRTlast / T½ / Vss: non-released PEG-BNP (or native BNP), equivalent protein mass 0.459 mg/kg IV, Sprague Dawley rats
Protocol: (§1) Thirty one (31) adult male Sprague-Dawley rats with indwelling jugular vein and carotid artery catheters (JVC/CAC) (Charles River Labs, Hollister, Calif.) were utilized for this study. […] All animals were food fasted overnight. Prior to dosing, the rats were weighed, the tails and cage cards were labeled for identification and the doses were calculated. Anesthesia was induced and maintained with 3.0-5.0% isoflurane. The JVC and CAC were externalized and flushed with HEP/saline (10 IU/mL HEP/mL saline). The predose sample was collected from the JVC and the catheters were plugged, and labeled to identify the jugular vein and carotid artery. When all of the animals had recovered from anesthesia and the predose samples were processed, the animals were dosed, intravenously (IV) via the JVC using a 1 mL syringe containing the appropriate test article and the dead volume of the catheter was flushed with 0.9% saline to ensure the animals received the correct dose.
(§2) Following a single IV dose, blood samples were collected from groups 1A, 2A, 3A and 4A, at 0 (pre-dose collected as described above), 0.03, 0.33, 2.0, 6.0, 12.0 and 72.0 hours and from Groups 1B, 2B, 3B and 4B at 0 (pre-dose collected as described above), 0.17, 1.0, 4.0, 8.0, 24.0 and 48.0 hours via the carotid artery catheter and processed as stated in the protocol. Following the last collection point, the animals were euthanized.
(§3) Concentrations in plasma that were below LLOQ were replaced with zeros prior to generating Tables and PK analysis. In the event that more than half (>50%) of the data points were below zero, mean concentration will not be shown in the figures or used in PK parameters estimation. The following PK parameters were estimated using plasma concentration-time profile of each animal:
(§4) C0 Extrapolated concentration to time “zero” Cmax Maximum (peak) concentration AUCall Area under the concentration-time from zero to time of last concentration value T1/2(Z) Terminal elimination half-life AUCinf Area under the concentration-time from zero to time infinity Tmax Time to reach maximum or peak concentration following administration CL Total body clearance Vz Volume of distribution based on terminal phase Vss Volume of distribution at steady state MRTlast Mean residence time to last observable concentration

[2] = rat, in vivo, iv
Protocol: as §1, §2, §3, §4

Q: For CC[C@H](C)[C@@H]1NC(=O)[C@H](CCCNC(=N)N)NC(=O)[C@H](CC(=O)O)NC(=O)[C@H](CCSC)NC(=O)[C@H](CCCCN)NC(=O)[C@H](CCCNC(=N)N)NC(=O)CNC(=O)[C@H](Cc2ccccc2)NC(=O)[C@@H](NC(=O)CNC(=O)[C@H](CO)NC(=O)CNC(=O)[C@H](CCC(N)=O)NC(=O)[C@@H](NC(=O)[C@H](CCSC)NC(=O)[C@H](CCCCN)NC(=O)[C@@H]2CCCN2C(=O)[C@@H](N)CO)C(C)C)CSSC[C@@H](C(=O)N[C@@H](CCCCN)C(=O)N[C@H](C(=O)N[C@@H](CC(C)C)C(=O)N[C@@H](CCCN=C(N)N)C(=O)N[C@@H](CCCN=C(N)N)C(=O)N[C@@H](Cc2cnc[nH]2)C(=O)O)C(C)C)NC(=O)CNC(=O)[C@H](CC(C)C)NC(=O)CNC(=O)[C@H](CO)NC(=O)[C@H](CO)NC(=O)[C@H](CO)NC(=O)[C@H](CO)NC1=O [BNP, nesiritide, reference compound], which “measurable BNP in plasma after BNP administration” value ([1]; IV, rats, in words) is on record?
A: Its value is “No measurable plasma concentrations; also recorded: No BNP was measurable in plasma”.

Q: For “ButyrALD-10K-BNP: non-releasable mPEG-Butyr-ALD-10K mono-PEG conjugate of BNP-32, N-terminus directed”, which AUCINF [1] is on record?
A: The AUCINF was 96.6 ng·h/mL.

Q: What about the CL [1] of the same molecule?
A: Its CL is 79.17 mL/min/kg.

Q: What about the Cmax [1] of the same molecule?
A: The Cmax was 355 ng/mL.

Q: What about the MRTlast [1] of the same molecule?
A: Its MRTlast is 0.368 h.

Q: And the T½ [1]?
A: The T½ was 0.272 h.

Q: What about the Vss [1] of the same molecule?
A: Its Vss is 2.27 L/kg.

Q: Which “clearance compared with ButyrALD-10K-BNP” value ([1]; IV, rats, in words) does the source give for “ButyrALD-40K-BNP: non-releasable 40 kDa mPEG2-Butyr-ALD mono-PEG conjugate of BNP-32, N-terminus directed” here?
A: Its value is “lower clearance”.

Q: What about the “half-life compared with ButyrALD-10K-BNP” value ([1]; IV, rats, in words) of the same molecule?
A: The value was “longer half-life”.

Q: What about the AUCINF [1] of the same molecule?
A: Its AUCINF is 41300 ng·h/mL.

Q: And the CL [1]?
A: Its CL is 0.185 mL/min/kg.

Q: And the Cmax [1]?
A: The Cmax was 1410 ng/mL.

Q: What about the MRTlast [1] of the same molecule?
A: The MRTlast was 24.0 h.

Q: And the T½ [1]?
A: Its T½ is 26.1 h.

Q: What about the Vss [1] of the same molecule?
A: The Vss was 0.631 L/kg.

Q: What about the “peak plasma concentration compared with ButyrALD-10K-BNP” value [2] of the same molecule?
A: Its value is “higher peak plasma concentration”.

Q: For “C2-FMOC-PEG2-40K-BNP: releasable mono-PEG conjugate of BNP-32 with mPEG2-C2-fmoc-NHS-40K; hydrolysis generates unmodified peptide”, which “half-life of conjugate in plasma” value ([1]; intact C2-FMOC-PEG2-40K-BNP, IV bolus, rats) is on record?
A: Its value is 15.0 h.

Q: And the “peak concentration of conjugate in plasma” value ([2]; male, Sprague-Dawley)?
A: Its value is 1300 ng/mL.

Q: And the “time of peak concentration of released BNP” value [2]?
A: Its value is 0.3 h.

Q: What about the “time plasma conjugate concentrations remained above 100 ng/mL” value [2] of the same molecule?
A: Its value is “up to 24 h”.

Q: And the “time released BNP stayed above 20 ng/mL” value [2]?
A: Its value is 8 h.
